According to publication PMC11481384 (2024):

Biological target: Keap1 Kelch domain (amino acid residues 309 to 624) (human, UniProt Q14145 309-624)
Assay: ITC

Chain of Keap1 Kelch domain (amino acid residues 309 to 624) (Q14145 309-624): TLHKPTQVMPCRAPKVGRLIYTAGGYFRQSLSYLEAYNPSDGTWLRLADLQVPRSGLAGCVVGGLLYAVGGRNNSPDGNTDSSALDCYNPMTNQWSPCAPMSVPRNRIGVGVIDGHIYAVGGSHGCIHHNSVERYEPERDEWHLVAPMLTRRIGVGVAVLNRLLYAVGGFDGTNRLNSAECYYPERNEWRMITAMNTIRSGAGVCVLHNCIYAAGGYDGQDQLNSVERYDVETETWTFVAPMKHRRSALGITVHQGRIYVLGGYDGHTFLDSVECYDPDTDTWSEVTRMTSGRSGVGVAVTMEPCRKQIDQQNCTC

B1: ED 12-mer peptide (peptide)
chain: ESGEEELASKLD
modifications: Limits inferred from the name: first residue E, last residue D, 12 residues, containing ESGE; by analogy IE 12-mer = 71-82 (PDB 8IN0) and the 20-mer is probably 71-90. Synthetic peptide, termini not stated
A Kd of 14 µM was found for B1 in this work.

A Kd of 63.6 µM was found for INVRKRNVESGE [PGAM5 IE 12‐mer peptide] in this work.

B2: 6-mer peptide (peptide)
chain: NVESGE
modifications: Sequence shown only in Fig. 4B; limits taken as the NxESGE motif (UniProt Keap1-interaction region 77-82). Synthetic peptide, termini not stated
A Kd of 133 µM was found for B2 in this work.
